According to IntAct's records for PubMed 29039417:

B1: BBSome complex member BBS2 (Homo sapiens), Q9BXC9 (parent)
chain: MLLPVFTLKLRHKISPRMVAIGRYDGTHPCLAAATQTGKVFIHNPHTRNQHVSASRVFQSPLESDVSLLSINQAVSCLTAGVLNPELGYDALLVGTQTNLLAYDVYNNSDLFYREVADGANAIVLGTLGDISSPLAIIGGNCALQGFNHEGSDLFWTVTGDNVNSLALCDFDGDGKKELLVGSEDFDIRVFKEDEIVAEMTETEIVTSLCPMYGSRFGYALSNGTVGVYDKTSRYWRIKSKNHAMSIHAFDLNSDGVNELITGWSNGKVDARSDRTGEVIFKDNFSSAIAGVVEGDYRMDGHIQLICCSVDGEIRGYLPGTAEMRGNLMDTSAEQDLIRELSQKKQNLLLELRNYEENAKAELASPLNEADGHRGIIPANTRLHTTLSVSLGNETQTAHTELRISTSNDTIIRAVLIFAEGIFTGESHVVHPSIHNLSSSICIPIVPPKDVPVDLHLKAFVGYRSSTQFHVFESTRQLPRFSMYALTSLDPASEPISYVNFTIAERAQRVVVWLGQNFLLPEDTHIQNAPFQVCFTSLRNGGHLHIKIKLSGEITINTDDIDLAGDIIQSMASFFAIEDLQVEADFPVYFEELRKVLVKVDEYHSVHQKLSADMADHSNLIRSLLVGAEDARLMRDMKTMKSRYMELYDLNRDLLNGYKIRCNNHTELLGNLKAVNQAIQRAGRLRVGKPKNQVITACRDAIRSNNINTLFKIMRVGTASS
partner: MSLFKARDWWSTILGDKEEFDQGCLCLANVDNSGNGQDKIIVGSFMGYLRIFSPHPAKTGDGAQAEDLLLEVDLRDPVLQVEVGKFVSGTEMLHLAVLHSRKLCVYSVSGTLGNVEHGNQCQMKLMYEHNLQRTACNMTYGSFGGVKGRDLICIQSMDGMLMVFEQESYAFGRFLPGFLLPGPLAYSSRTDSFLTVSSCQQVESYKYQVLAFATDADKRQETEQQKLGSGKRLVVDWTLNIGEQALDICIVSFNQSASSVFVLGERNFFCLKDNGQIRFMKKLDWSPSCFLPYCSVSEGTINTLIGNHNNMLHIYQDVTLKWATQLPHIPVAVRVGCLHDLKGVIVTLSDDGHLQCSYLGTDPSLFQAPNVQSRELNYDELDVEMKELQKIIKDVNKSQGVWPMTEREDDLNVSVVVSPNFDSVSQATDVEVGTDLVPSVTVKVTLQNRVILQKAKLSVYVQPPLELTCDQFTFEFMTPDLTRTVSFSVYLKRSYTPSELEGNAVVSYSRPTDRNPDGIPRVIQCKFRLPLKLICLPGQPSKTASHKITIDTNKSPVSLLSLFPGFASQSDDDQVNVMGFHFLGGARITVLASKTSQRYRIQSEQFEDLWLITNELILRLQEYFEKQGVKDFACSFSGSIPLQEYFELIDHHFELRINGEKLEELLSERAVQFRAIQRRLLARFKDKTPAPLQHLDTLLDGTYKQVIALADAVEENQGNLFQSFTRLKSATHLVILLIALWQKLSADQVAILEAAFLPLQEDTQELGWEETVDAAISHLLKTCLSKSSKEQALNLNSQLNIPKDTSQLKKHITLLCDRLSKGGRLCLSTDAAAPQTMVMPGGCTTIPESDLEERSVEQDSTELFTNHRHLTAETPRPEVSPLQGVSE

Variants of: B1
Conditions: with pthb1_human BBS9, Q3SYG4

Row | effect of a mutation on the interaction | Variant
1 | with no effect | A628K
2 | with no effect | A628E
3 | with no effect | Y648K
4 | with no effect | Y648A
5 | with no effect | Y648E
6 | with no effect | T639A
7 | with no effect | T639K
8 | with no effect | T639E
9 | with no effect | E629A
10 | with no effect | E629K
11 | with no effect | R643A
12 | with no effect | R643E
13 | with no effect | R643K
14 | with no effect | L625A
15 | with no effect | L625E
16 | with no effect | L625K
17 | with no effect | V626K
18 | with no effect | V626A
19 | with no effect | V626E
20 | with no effect | R635E
21 | with no effect | R635K
22 | with no effect | R635A
23 | with no effect | A631E
24 | with no effect | A631K

Row | effect of a mutation on the interaction | Variant
25 | with no effect | G657A
26 | with no effect | G657E
27 | with no effect | R632E
28 | with no effect | R632A
29 | with no effect | R632K
30 | with no effect | L647K
31 | with no effect | L647E
32 | with no effect | L647A
33 | with no effect | L655E
34 | with no effect | L655K
35 | with no effect | L655A
36 | with no effect | N651E
37 | with no effect | N651K
38 | with no effect | N651A
39 | with no effect | D630E
40 | with no effect | D630A
41 | with no effect | D630K
42 | with no effect | E646K
43 | with no effect | E646A
44 | with no effect | M640A
45 | with no effect | M640K
46 | with no effect | M640E
47 | with no effect | Y644K
48 | with no effect | Y644E

Row | effect of a mutation on the interaction | Variant
49 | with no effect | Y644A
50 | with no effect | K641A
51 | with no effect | K641E
52 | with no effect | M637K
53 | with no effect | M637A
54 | with no effect | M637E
55 | with no effect | N656E
56 | with no effect | N656A
57 | with no effect | N656K
58 | with no effect | R652K
59 | with no effect | R652E
60 | with no effect | R652A
61 | with no effect | M645A
62 | with no effect | M645E
63 | with no effect | M645K
64 | with no effect | D636A
65 | disrupting interaction strength | D636G
66 | with no effect | D636E
67 | with no effect | D636K
68 | with no effect | D653K
69 | with no effect | D653A
70 | with no effect | D653E
71 | with no effect | L624K
72 | with no effect | S642E

Row | effect of a mutation on the interaction | Variant
73 | with no effect | S642A
74 | with no effect | S642K
75 | with no effect | L654E
76 | with no effect | L654A
77 | with no effect | L654K
78 | with no effect | G627K
79 | with no effect | G627E
80 | with no effect | G627A
81 | with no effect | M634A
82 | with no effect | M634K
83 | with no effect | M634E
84 | with no effect | L650K
85 | with no effect | L650A
86 | with no effect | L650E
87 | with no effect | L633A
88 | with no effect | L633E
89 | with no effect | L633K
90 | with no effect | K638A
91 | with no effect | K638E
92 | with no effect | D649E
93 | with no effect | D649K
94 | with no effect | D649A
